Assay [1] has as its target recombinant cyno monkey PCSK9 protein (cyno monkey). Put plainly: ELISA; antibody 0 nM. In general terms: ELISA stands for enzyme-linked immunosorbent assay.
For assay [2] the target is unchanged. Put plainly: ELISA; antibody 0.67 nM.
Assay [3] has the same target. Put plainly: ELISA; antibody 0.00067 nM.
For assay [4] the target is unchanged. Put plainly: ELISA; antibody 66.67 nM.
Assay [5] deals with recombinant human PCSK9-His protein (Immunogen A) (human) (UniProt Q8NBP7). Put plainly: ELISA; antibody 66.67 nM.
Assay [6] has the same target. Put plainly: ELISA of PCSK9 binding to LDLR ECD; antibody 40 nM.
The target is the same in assay [7]. Kind of assay: ELISA of PCSK9 binding to LDLR ECD; antibody 0 nM.
For assay [8], the target named is recombinant cyno monkey PCSK9 protein (cyno monkey). Put plainly: ELISA; antibody 0.000067 nM.
Assay [9] concerns the target recombinant human PCSK9-His protein (Immunogen A) (human) (UniProt Q8NBP7). Kind of assay: ELISA of PCSK9 binding to LDLR ECD; antibody 8 nM.
Assay [10] concerns the target recombinant cyno monkey PCSK9 protein (cyno monkey). Kind of assay: ELISA; antibody 0 nM. This is another data set of the same source.
Assay [11] has the same target. Kind of assay: ELISA; antibody 6.67 nM.
Assay [12] has as its target recombinant human PCSK9-His protein (Immunogen A) (human) (UniProt Q8NBP7). Kind of assay: ELISA of PCSK9 binding to LDLR ECD; antibody 200 nM.
For assay [13], the target named is recombinant human PCSK9^D374Y protein (human) (UniProt Q8NBP7). Kind of assay: ELISA of PCSK9^D374Y binding to LDLR ECD; antibody 0.06 nM.
Assay [14] addresses recombinant cyno monkey PCSK9 protein (cyno monkey). Kind of assay: ELISA, biotin-cyno PCSK9 on streptavidin plate; antibody 0.000067 nM.
For assay [15] the target is unchanged. Kind of assay: ELISA, biotin-cyno PCSK9 on streptavidin plate; antibody 0.00067 nM.
Assay [16] shares this target. Put plainly: ELISA, biotin-cyno PCSK9 on streptavidin plate; antibody 66.67 nM.
The target in assay [17] is recombinant human PCSK9 protein, His-tagged (Immunogen A, hPCSK9-His) (human) (UniProt Q8NBP7). Put plainly: blocking ELISA, biotin-hPCSK9-His on coated LDLR ECD-His; antibody 0.01 nM.
The target is the same in assay [18]. Kind of assay: blocking ELISA, biotin-hPCSK9-His on coated LDLR ECD-His; antibody 200 nM.
The target is the same in assay [19]. Kind of assay: blocking ELISA, biotin-hPCSK9-His on coated LDLR ECD-His; antibody 40 nM.
For assay [20], the target named is recombinant cyno monkey PCSK9 protein (cyno monkey). Put plainly: ELISA, biotin-cyno PCSK9 on streptavidin plate; antibody 0.0067 nM.
Assay [21] deals with recombinant human PCSK9 protein, His-tagged (Immunogen A, hPCSK9-His) (human) (UniProt Q8NBP7). Kind of assay: ELISA, biotin-hPCSK9-His on streptavidin plate; antibody 0.67 nM.
Assay [22] shares this target. Kind of assay: ELISA, biotin-hPCSK9-His on streptavidin plate; antibody 66.67 nM.
Assay [23] concerns the target recombinant cyno monkey PCSK9 protein (cyno monkey). Put plainly: ELISA, biotin-cyno PCSK9 on streptavidin plate; antibody 0.067 nM.
The target in assay [24] is recombinant human PCSK9 protein, His-tagged (Immunogen A, hPCSK9-His) (human) (UniProt Q8NBP7). Put plainly: blocking ELISA, biotin-hPCSK9-His on coated LDLR ECD-His; antibody 1.6 nM.
For assay [25] the target is unchanged. Put plainly: ELISA, biotin-hPCSK9-His on streptavidin plate; antibody 0.00067 nM.
Assay [26] shares this target. Put plainly: blocking ELISA, biotin-hPCSK9-His on coated LDLR ECD-His; antibody 0.32 nM.
Assay [27] deals with recombinant cyno monkey PCSK9 protein (cyno monkey). Kind of assay: ELISA, biotin-cyno PCSK9 on streptavidin plate; antibody 0.67 nM.
Assay [28] deals with recombinant human PCSK9 protein, His-tagged (Immunogen A, hPCSK9-His) (human) (UniProt Q8NBP7). Put plainly: ELISA, biotin-hPCSK9-His on streptavidin plate; antibody 6.67 nM.
Assay [29] concerns the target recombinant cyno monkey PCSK9 protein (cyno monkey). Put plainly: ELISA, biotin-cyno PCSK9 on streptavidin plate; antibody 6.67 nM.
For assay [30], the target named is recombinant human PCSK9 protein, His-tagged (Immunogen A, hPCSK9-His) (human) (UniProt Q8NBP7). Put plainly: blocking ELISA, biotin-hPCSK9-His on coated LDLR ECD-His; antibody 8 nM.
For assay [31] the target is unchanged. Kind of assay: ELISA, biotin-hPCSK9-His on streptavidin plate; antibody 0.067 nM.
Assay [32] has the same target. Put plainly: ELISA, biotin-hPCSK9-His on streptavidin plate; antibody 0 nM (blank).
For assay [33] the target is unchanged. Put plainly: blocking ELISA, biotin-hPCSK9-His on coated LDLR ECD-His; antibody 0.06 nM.
Assay [34] shares this target. Kind of assay: ELISA, biotin-hPCSK9-His on streptavidin plate; antibody 0.0067 nM.
The target of assay [35] is recombinant cyno monkey PCSK9 protein (cyno monkey). Put plainly: ELISA, biotin-cyno PCSK9 on streptavidin plate; antibody 0 nM (blank).
Assay [36] has as its target recombinant human PCSK9 protein, His-tagged (Immunogen A, hPCSK9-His) (human) (UniProt Q8NBP7). Kind of assay: ELISA, biotin-hPCSK9-His on streptavidin plate; antibody 0.000067 nM.
The target of assay [37] is recombinant human PCSK9-His protein (Immunogen A) (human) (UniProt Q8NBP7). Kind of assay: SPR, Biacore T200; antibody captured by anti-human Fc. For orientation: SPR reads the build-up and loss of mass on a sensor chip optically.

“And” between values parts separate entries of the source, which are not always exact repeats. Identical values can stand only once.

What is called Kd is the equilibrium constant for the complex coming apart. As a reminder, the koff is a measure of how fast the partners let go of each other. As usually defined, the kon is a measure of how fast the partners come together.

Chain of recombinant cyno monkey PCSK9 protein (cyno monkey) (A8T666 31-692 limits assumed): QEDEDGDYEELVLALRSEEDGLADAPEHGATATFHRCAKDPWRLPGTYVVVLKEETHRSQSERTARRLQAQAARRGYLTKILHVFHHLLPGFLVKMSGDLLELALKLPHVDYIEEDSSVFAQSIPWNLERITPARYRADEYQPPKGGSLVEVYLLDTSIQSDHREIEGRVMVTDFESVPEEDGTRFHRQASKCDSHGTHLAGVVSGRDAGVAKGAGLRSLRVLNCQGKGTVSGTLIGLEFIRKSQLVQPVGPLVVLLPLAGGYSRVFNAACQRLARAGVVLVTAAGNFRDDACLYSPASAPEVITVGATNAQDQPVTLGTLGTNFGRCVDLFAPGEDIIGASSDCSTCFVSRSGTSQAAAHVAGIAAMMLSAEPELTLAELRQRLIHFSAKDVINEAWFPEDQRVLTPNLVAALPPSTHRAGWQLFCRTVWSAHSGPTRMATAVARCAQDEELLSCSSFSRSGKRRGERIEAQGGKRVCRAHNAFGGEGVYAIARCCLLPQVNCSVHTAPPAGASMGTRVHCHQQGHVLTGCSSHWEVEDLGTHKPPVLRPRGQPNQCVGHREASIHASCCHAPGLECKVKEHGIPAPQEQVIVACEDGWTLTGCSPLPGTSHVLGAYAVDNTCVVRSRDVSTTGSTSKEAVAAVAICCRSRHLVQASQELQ

In the case of IgG control (human IgG) (antibody), the OD450 nm amounted to 0.06 OD450 nm in [1]; 0.08 OD450 nm in assay [2]; 0.07 OD450 nm in assay [3]; 0.81 OD450 nm in [4]; 0.97 OD450 nm in assay [5]; 1.43 OD450 nm in assay [6]. The OD450 nm is 2.4 OD450 nm in assay [7]; 0.07 OD450 nm in assay [8]; 1.76 OD450 nm in assay [9]; 0.07 OD450 nm in assay [10]; 0.15 OD450 nm in [11]; 1.41 OD450 nm in assay [12]. The OD450 nm in assay [13] worked out at 1.57 OD450 nm.

For IgG control (rat IgG) (antibody), the OD450 nm in assay [14] amounted to 0.19 OD450 nm; in [15], 0.16 OD450 nm; in [16] it was 0.18 OD450 nm; in assay [20], 0.12 OD450 nm; in assay [21], 0.09 OD450 nm; in [22], 0.11 OD450 nm. The OD450 nm in assay [23] was 0.12 OD450 nm; in assay [25], 0.18 OD450 nm and 0.09 OD450 nm; in assay [27], 0.12 OD450 nm; in assay [28], 0.1 OD450 nm; in assay [29], 0.17 OD450 nm; in [31] it was 0.12 OD450 nm and 0.09 OD450 nm. The OD450 nm was 0.1 OD450 nm in assay [32]; 0.18 OD450 nm and 0.1 OD450 nm in [34]; 0.15 OD450 nm in assay [35]; 0.11 OD450 nm in assay [36]. Besides, the OD450 nm (PCSK9 bound to LDLR) in assay [17] was 1.22 OD450 nm and 1.18 OD450 nm; in assay [18] it was 1.22 OD450 nm and 1.14 OD450 nm; in assay [19] it was 1.01 OD450 nm and 1.11 OD450 nm; in [24], 1.09 OD450 nm and 1.12 OD450 nm; in assay [26], 1.2 OD450 nm and 1.13 OD450 nm; in [30], 1.02 OD450 nm and 1.07 OD450 nm. Further, in [33], the OD450 nm (PCSK9 bound to LDLR) is 1.26 OD450 nm and 1.2 OD450 nm.

On to Evolocumab, Amgen (antibody), for which, in [37], the Kd is under 0.122 nM, the dissociation rate constant (koff) turned out to be 0.000822 s⁻¹ and the on-rate (kon) is under 100000 M⁻¹ s⁻¹.

Consider Alirocumab, Regeneron (antibody), for which, in assay [37], the dissociation constant Kd was determined as 0.394 nM, the koff was found to be 0.000318 s⁻¹ and the kon worked out at 806000 M⁻¹ s⁻¹.
